{"source": "patent US20150056210A1", "about": "(published 2015)", "binders": {"B1": {"name": "CRB0017_IgG4 (antibody, V domains shown)", "VH": "QVQLQQSGAELAKPGASVKMSCKASGYTFTSYWMHWVKQRPGQGLEWIGYINPSTGYTEYNQKFKDKATLTADKSSSTAYMQLGSLTSEDSAVYYCARGGYDDLGYWGQGTTLTVSS", "VL": "DIVITQDELSNPVTSGESVSISCRSSKSLLYKDGKTYLYWFLQRPGQSPQLPIYLMSTRASGVSDRFSGSGSGTDFTLEISRVKAEDVGVYYCQQLVEYPYTFGGGTKLEIK"}}, "biological_target": "Spacer-GST", "experiment": "SPR (Biacore X-100)"}
{"binder": "B1", "values": [{"measurement": "Kd", "result": 2.15, "unit": "nM"}]}
